Where two headings read alike, the source gives them in different places.
Columns and labels:
[1] = biological target: HCoV-OC43 nucleocapsid protein (HCoV-OC43, UniProt P33469 1-448); assay: CE; Kd range for six aptamers 6.57-31.76 nM; details: protein: recombinant
[2] = biological target: SARS-CoV nucleocapsid protein (SARS NP) (SARS-CoV, UniProt P59595 1-422); details: protein: commercial
[3] = biological target: MERS-CoV nucleocapsid protein (MERS NP) (MERS-CoV, UniProt K9N4V7 1-411); details: protein: commercial
[4] = biological target: SARS-CoV-2 nucleocapsid protein (NP) (SARS-CoV-2 (WT), UniProt P0DTC9 1-419); assay: CE; details: protein: commercial
[5] = label: 5'-FAM in CE (position not restated for aptamers)

Measured: binding result

ACTCCCACCTTTATTGAGGGCGGTGACGGGTTCCCTC (ssDNA) [Seq-59]
binds: [1]; label: FAM in CE | [2]; label: FAM in CE | [3]; label: FAM in CE | [4]; label: FAM in CE

GCAGGCAAGGCTCTACTGACCCGTTGCTTGATCGAC (ssDNA) [Seq-7]
binds: [1]; [5] | [2]; [5] | [3]; [5] | [4]; [5]

CACCTCTCACCCCACGGTTCTGGTCCTTCCCCGACG (ssDNA) [Seq-1280]
binds: [1]; label: FAM in CE | [2]; label: FAM in CE | [3]; label: FAM in CE | [4]; label: FAM in CE

AGGGGGGACACCTAGATTGTTGGCCGTGCGGATACG (ssDNA) [Seq-333]
binds: [1]; label: FAM in CE | [2]; label: FAM in CE | [3]; label: FAM in CE | [4]; label: FAM in CE

AGGGGGGACATCTGGAGTGTTGGCCGTGCGGATACG (ssDNA) [Seq-1022]
binds: [1]; label: FAM in CE | [2]; label: FAM in CE | [3]; label: FAM in CE | [4]; label: FAM in CE

TCCACGGTCGGTCCCCTTACCACTGGTCCCTTTGTC (ssDNA) [Seq-4650]
binds: [1]; label: FAM in CE | [2]; label: FAM in CE | [3]; label: FAM in CE | [4]; label: FAM in CE
